These results are taken from patent US20200131277A1.

For the experiment, the target named is pY peptide GGGpYGGG. The experiment can be described thus: BLI (Octet RED384), biotinylated peptide on streptavidin sensor, Fab in solution, 1:1 fit. In general terms: In BLI a coated tip is dipped into the sample, and binding shifts an interference pattern.

As usually defined, the Kd is the concentration at which binding is half-saturated. The low end stands for higher affinity, the high end for lower affinity. 4G10^4D5 (Fab) displayed a Kd of 277 nM.
The figure for PY20^4D5 (Fab) is 1830 nM.
